Target: double mutant (E87C, C312T) AmtB protein complex from E. coli (E. coli) (UniProt P69681)
Experiment: native MS

## double mutant (E87C, C312T) AmtB protein complex from E. coli (from UniProt P69681 23-428) (natural protein)
  stoichiometry N: 3

— paper PMC7641504
